Test results taken from PMC5993284, “Peptide inhibitors of the anaphase promoting-complex that cause sensitivity to microtubule poison” (PLoS ONE, 2018).
Entries after “also recorded” stand apart in the source; their conditions may differ.

B1: C-box2: C-box2 (Cdc20 130–196) containing the region between the C-box and the Mad2-binding motif (peptide, UniProt P26309 130-196, looked up, fragment)
chain: TTSREVDEQFTVAADRYIPILQGASQNKVDPETLHEALPPPNASPISHLRAQTKIVFKQNVAEACGL
B2: Cdc20-CB (I147A, P148A): control mutant with mutations in two residues within the C-box (protein, UniProt P26309 1-610, looked up, variant I147A P148A)
APC/C activator protein CDC20: MPESSRDKGNAAISGNRSVLSIASPTKLNILSSDWSRNQGKVSKNSLKRSSSLNIRNSKRPSLQASANSIYSRPKITIGAPPLIRRDSSFFKDEFDAKKDKATFSAYSSRSYPTIGSESVVSQTSLSQPTTSREVDEQFTVAADRYAAILQGASQNKVDPETLHEALPPPNASPISHLRAQTKIVFKQNVAEACGLDMNKRILQYMPEPPKCSSLRQKSYIMKKRTHYSYQQEQKIPDLIKLRKINTNPERILDAPGFQDDFYLNLLSWSKKNVLAIALDTALYLWNATTGDVSLLTDFENTTICSVTWSDDDCHISIGKEDGNTEIWDVETMSLIRTMRSGLGVRIGSLSWLDTLIATGSRSGEIQINDVRIKQHIVSTWAEHTGEVCGLSYKSDGLQLASGGNDNTVMIWDTRTSLPQFSKKTHTAAVKALSWCPYSPNILASGGGQTDKHIHFWNSITGARVGSINTGSQVSSLHWGQSHTSTNGGMMNKEIVATGGNPENAISVYNYETKFKVAEVVHAHEARICCSQLSPDGTTLATVGGDENLKFYKIFDPRCTGRSREDGLMDGMLGLIGKEGCRTNDKENRSKNSSEIHTRRPSSTSQYLIR
B3: Cdc20-L203A: mutant allele of Cdc20 in the conserved KILR-motif (protein, UniProt P26309 1-610, looked up, variant L203A)
APC/C activator protein CDC20: MPESSRDKGNAAISGNRSVLSIASPTKLNILSSDWSRNQGKVSKNSLKRSSSLNIRNSKRPSLQASANSIYSRPKITIGAPPLIRRDSSFFKDEFDAKKDKATFSAYSSRSYPTIGSESVVSQTSLSQPTTSREVDEQFTVAADRYIPILQGASQNKVDPETLHEALPPPNASPISHLRAQTKIVFKQNVAEACGLDMNKRIAQYMPEPPKCSSLRQKSYIMKKRTHYSYQQEQKIPDLIKLRKINTNPERILDAPGFQDDFYLNLLSWSKKNVLAIALDTALYLWNATTGDVSLLTDFENTTICSVTWSDDDCHISIGKEDGNTEIWDVETMSLIRTMRSGLGVRIGSLSWLDTLIATGSRSGEIQINDVRIKQHIVSTWAEHTGEVCGLSYKSDGLQLASGGNDNTVMIWDTRTSLPQFSKKTHTAAVKALSWCPYSPNILASGGGQTDKHIHFWNSITGARVGSINTGSQVSSLHWGQSHTSTNGGMMNKEIVATGGNPENAISVYNYETKFKVAEVVHAHEARICCSQLSPDGTTLATVGGDENLKFYKIFDPRCTGRSREDGLMDGMLGLIGKEGCRTNDKENRSKNSSEIHTRRPSSTSQYLIR

How the values were obtained:
APC/C^Cdc20 = biological target: T1, APC/C^Cdc20 (Saccharomyces cerevisiae, UniProt P16522+P53886); experiment: biochemical; type: biochemical; conditions: 220 μM peptide; 35S-Pds1 substrate; time course 0-60 minutes; vs buffer only; n = 3
T1 construct: constructed within full-length Cdc20 by site-directed mutagenesis for analysis in vitro in the APC/C^Cdc20 assay; The APC/C was purified for enzyme assays from 1 mL of TAP-tagged Cdc16 yeast extract (SCSY51); made in house; host or cells: Cdc20: in vitro transcription/translation in rabbit reticulocyte lysate, used unpurified; APC/C: S. cerevisiae strain SCSY51 (Cdc16-TAP) extract, captured on IgG magnetic beads
Description: (§1) Full-length, radio-labeled protein purifications were preformed as previously described. ^35S-Pds1 was prepared in a 500 μL IVT/T (In Vitro Transcription/Translation) reaction (Promega, USA), which contained 400 μL rabbit reticulocyte lysate, 20 μL of L-^35S-methionine (PerkinElmer, USA), 10 μg of plasmid DNA, and the remaining volume as nuclease-free ddH2O as recommended by the manufacturer. The reaction mixture was incubated for 2 hours at room temperature and gently mixed every 30 minutes. The reaction was added to pre-equilibrated IgG Sepharose beads (GE Healthcare, USA) in Bio-spin disposable chromatography columns (Bio-Rad, USA) for binding for 2 hours at room temperature. To ensure efficient binding, the beads were re-suspended several times every 30 minutes. After binding, the beads were washed with 5 mL wash buffer, containing 200 mM 4-(2-hydroxyethyl)-1-piperazineethanesulfonic acid (HEPES) at pH 8.0, 150 mM NaCl, 10% (v/v) glycerol, and 1 mM dithiothreitol (DTT). The ^35S-Pds1 was cleaved from the beads using TEV (Tobacco Etch Virus) protease in 1x TEV buffer (Invitrogen, USA) for 2 hours at room temperature, and the mixture was re-suspended several times every 30 minutes to promote efficient cleavage. The elution was collected and concentrated by employing an Amicon Ultra filter column (Millipore, Ireland). The concentrated ^35S-Pds1 was collected in a new tube, and stored at -20 °C.
(§2) The production of Cdc20 or Cdh1 was prepared by IVT/T reactions, where 16 μL of rabbit reticulocyte lysate, 20 μM L-methionine, 0.4 μg of plasmid DNA, and a volume of nuclease-free ddH2O for a total volume of 20 μL. This freshly synthesized Cdc20 or Cdh1 protein was used directly in all APC/C assays after a 1-hour synthesis reaction at room temperature. The APC/C was purified for enzyme assays from 1 mL of TAP-tagged Cdc16 yeast extract (SCSY51) where extract was mixed with 50 μL 50:50 slurry magnetic beads (Invitrogen, Norway) for 2 hours at 4 °C. After incubation, the beads were washed with 3 mL APC/C wash buffer (200 mM of HEPES, 150 mM of NaCl and 10% (v/v) of glycerol). APC/C bound to IgG magnetic beads was used directly in the enzyme assays.
(§3) APC/C assays were performed by adding the reaction contents in following order: 4.3 μL of QAH buffer, 20 μL of rabbit reticulocyte lysate containing Cdc20 or Cdh1 with or without an additional volume of recombinant checkpoint protein(s) or inhibitor peptides, 2.4 μL ubiquitin aldehyde (Boston Biochem, USA), APC/C, 16 μL pre-charged E1/E2/ATP/ubiquitin mix, and 13.3 μL of ^35S-Pds1 with QAH buffer (20 mM HEPES at pH 8.0, 100 mM NaCl, and 1 mM MgCl2). The E1/E2/ATP/ubiquitin mix were pre-charged by mixing 1 μL of E1 (Boston Biochem, USA), 1 μL of E2 (Boston Biochem, USA), 14.4 μL of ATP, 14.4 μL of […] (Boston Biochem, USA), and 17.2 μL of QAH buffer and incubated for 15 minutes at room temperature. Approximately 15 μL of samples were taken out at each time point, and the reaction was stopped by the addition of 2x protein sample buffer (125 mM Tris-HCl pH 6.8, 4% SDS, 20% glycerol, and 0.002% bromophenol blue, with 10% (final v/v) 2-mercaptoethanol added in fresh directly before use).
For inhibitor titration and time-course experiments, recombinant Bub3, Mad2, Mad3, and the Mad3-Bub3 complex were expressed and purified as previously described. […] For inhibition of APC/C the co-factor Cdc20 or Cdh1 was made fresh by IVT/T, and pure recombinant checkpoint proteins or inhibitor peptides were added to the IVT/T mixture and incubated for an additional hour at room temperature. In titrations, a dilution series of the checkpoint protein(s) were made before incubation with the Cdc20 co-factor. SDS-PAGE was performed using stand protocols (BioRad, USA).

APC/C^Cdh1 = APC/C^Cdh1 enzyme assay (ubiquitination of 35S-Pds1); type: biochemical, Saccharomyces cerevisiae; conditions: 220 μM peptide; 35S-Pds1 substrate; time course 0-60 minutes; vs buffer; n = 3
Description: as §1, §2
APC/C assays were performed by adding the reaction contents in following order: 4.3 μL of QAH buffer, 20 μL of rabbit reticulocyte lysate containing Cdc20 or Cdh1 with or without an additional volume of recombinant checkpoint protein(s) or inhibitor peptides, 2.4 μL ubiquitin aldehyde (Boston Biochem, USA), APC/C, 16 μL pre-charged E1/E2/ATP/ubiquitin mix, and 13.3 μL of ^35S-Pds1 with QAH buffer (20 mM HEPES at pH 8.0, 100 mM NaCl, and 1 mM MgCl2). […]

APC/C = APC/C activity promoted by mutant Cdc20 alleles (Pds1 remaining); type: biochemical, Saccharomyces cerevisiae
Description: as §2, §3
For APC/C activity assays dried-gels were exposed on a phosphor screen cassette to detect radio-labeled protein. The phosphor screen was scanned by a Typhoon phosphor-imager (GE Healthcare Bio-Sciences, USA), and radio-labeled protein bands in gels were quantified by employing the ImageQuant software (GE Healthcare Bio-Sciences, USA) according to the manufacturer’s protocols. Data were expressed as mean ± standard deviation, and was analyzed using Student’s t-test. Graphs were created using Kaliedograph 4.0 (Synergy Software, USA) and estimates of best-fit curves of a 4-parameter Hill equation were generated to obtain estimates for the median inhibitory concentrations (IC50) and Hill coefficients (Hc) using IgorPro 6.01 (Wavemetrics, USA).
By sequence alignment and amino acid homology alone, the budding yeast KILR-motif may be defined as 201-RILQ-204 (Fig 1A). However, the next residue, Tyrosine Y205 had previously been isolated in a genetic screen for spindle checkpoint by-pass alleles of Cdc20 [21], indicating this Y205 residue may be a target of the spindle checkpoint inhibition, and thus might also be a functional KILR-motif residue that contributes to APC/C activation. To clarify this possibility, we took the initial step to characterize several of the previously isolated spindle checkpoint by-pass mutant alleles of Cdc20 [21], and also Cdc20 mutants in the two highly conserved residues within the Mad2-binding motif, the aspartic acid at D197 of unknown function and the highly conserved Leucine L203 within the KILR-motif based on sequence alignment and homology. […]

Row | Molecule | inhibition of APC/C^Cdc20 activity (in words) (APC/C^Cdc20) | inhibition of APC/C^Cdh1 activity (in words) (APC/C^Cdh1) | ability of mutant Cdc20 to promote APC/C activity (in words) (APC/C; vs wild type Cdc20, n = 3) | ability of mutant Cdc20 to promote APC/C activity (in words) (APC/C; vs wild type Cdc20, n = 3, listed as Cdc20-CB)
1 | B1 | observed to inhibit APC/C^Cdc20 activity; also recorded: A significant level of APC/C^Cdc20 inhibition was observed only in the presence of the C-box2 peptide | also inhibited APC/C^Cdh1 activity; also recorded: A significant level of APC/C^Cdh1 inhibition was observed |  | 
2 | B2 |  |  | displayed decreased APC/C activity; also recorded: consistently displayed a decrease in APC activity | had no APC/C activity
3 | B3 |  |  | displayed decreased APC/C activity; also recorded: had no APC/C activity; also recorded: consistently displayed a decrease in APC activity | 
